# Test system: MS2 coat protein
# Assay: apparent KD of MS2 coat protein; designed switch direction (-1 OFF switch, 1 ON switch): 1; higher = weaker reporter binding
# Summary of the method: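 RNA switches sharing common flanks were transcribed by stalled E. coli RNA polymerase on Illumina chips. A doubling series of SNAP-549-labelled MS2 coat protein, from 0.7 or 1.5 nM to 3 µM, was applied in Tris-HCl pH 7.5 buffer with KCl, MgCl2, BSA, DTT, tRNA and Tween-20. Each step lasted 0.8–1.5 h at the bottom of the series and 10–20 min at the top. Normalised cluster fluorescence was curve-fitted, giving apparent KD as the per-design median over clusters.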
# [1] = input ligand: microRNA oligo, concentration not stated
# [2] = Eterna round: R95, input ligand: FMN 200 uM
# [3] = Eterna round: R95, input ligand: microRNA oligo, concentration not stated
# [4] = Eterna round: R95, input ligand: none
Sequence,apparent KD of MS2 coat protein [1] [nM],apparent KD of MS2 coat protein (input ligand: FMN 200 uM) [nM],apparent KD of MS2 coat protein (input ligand: none) [nM],apparent KD of MS2 coat protein [2] [nM],apparent KD of MS2 coat protein [3] [nM],apparent KD of MS2 coat protein [4] [nM]
"AUUAAUUAAUUAAUACAUGAGGAUCACCCAUGUAAUAAGAUCUAGGAUAUCAGCUCGAAUAGAGCUGAGAAGGAGAUCACAUGU [SSNG3/17-A1] (Eterna round: R96, puzzle: Same State NG 3)",31.1,–,–,–,–,–
"AUUAAUUAAUUAAUACAUGAGGAUCACCCAUGUAAUAAGAUCUAGGAUAUCAGCUCGUUUAGAGCUGAGAAGGAGAUCACAUGU [SSNG3/17-A3] (Eterna round: R96, puzzle: Same State NG 3)",32.7,–,–,–,–,–
"AUUAUUAAUAUAGGAUAUGUAAAACAUGAGGAUCACCCAUGUGAUAUCGUGAGUAAGGAGAGAGAACAGAAGGAUAAUUUUUUU [JMF's solution 1] (Eterna round: R96, puzzle: Same State NG 2)",30.9,38.1,41.3,–,–,–
"AUUAUUAAUGCAGGAUAUGAUUAACAUGAGGAUCACCCAUGUGGUGUUGUGAGUAAGGAGAGUGAUCAGAAGGGCAUUUUUUGU [JMF's solution 16] (Eterna round: R96, puzzle: Same State NG 2)",264,798,615,–,–,–
"AUUGCUAGCACAGGAUAUCAUGCGAAAAUUGCGUGAGAAGGGUGGACACUGUCAUUCACGGAGGACAUGAGGAUCACCCAUGUC [SameState NG1 #79] (Eterna round: R96, puzzle: Same State NG 1)",59,77.1,74.9,–,–,–
"AUUGCUAGCGCAGGAUAUGAUGCGAAAAUUGCGUCAGAAGGGUGUAAUCUCUCAUUGCGGGAGGACAUGAGGAUCACCCAUGUC [SameState NG1 #84] (Eterna round: R96, puzzle: Same State NG 1)",123,–,–,–,–,–
"AUUGCUUACGCAGGAUAUGAUGCGAAAAUUGCGUCAGAAGGGUGAAGUGACUCGUAGCAACAAGACAUGAGGAUCACCCAUGUC [SameState NG1 #93] (Eterna round: R96, puzzle: Same State NG 1)",26.4,28.2,42.1,–,–,–
"AUUGGGUAACGAGGAUAUCGUAUUUGUUUGUUUCGAGAAGGCGUUAUAGUUUCUUUCUAUUGUUACAUGAGGAUCACCCAUGUU [JR_SSNG1_Sub052] (Eterna round: R96, puzzle: Same State NG 1)",15,19.1,19.9,–,–,–
"AUUGUUUAUGCAGGAUAUGAUUAACAUGAGGAUCACCCAUGUGGUGUUGUGAGUAAGGAGAGUGAUCAGAAGGGCAUUUUUUUU [JMF's solution 69] (Eterna round: R96, puzzle: Same State NG 2)",273,735,411,–,–,–
AUUUAACAAGCUUUUUGCUCGUCUUAUAAACAUGAGGAUCACCCAUGUAAUAGCGUGAGAGUAAAUUAUUAAAUAAU [JMF 91] (puzzle: Sensor for hsa-mir-208a),–,–,–,13,39.9,11.9
"AUUUCUAAUGCAGGAUAUGAUUAACAUGAGGAUCACCCAUGUGGUGUUGUGAGUAAGGAGAGUGAUCAGAAGGGCAUUUUUUUU [JMF's solution 99] (Eterna round: R96, puzzle: Same State NG 2)",428,915,579,–,–,–
"AUUUGCGCUAUAGGAUAUGGCAGGGUGAACCAGCCAGAAGGAUAAGUAGGGAGGUGACAUGAGGAUCACCCAUGUAAUAAGGAA [Eternabot solution 6] (Eterna round: R96, puzzle: Same State NG 1)",290,330,378,–,–,–
"AUUUUAGUCAGAGGAUAUUGUUUAUCUCUAUUACAAGAAGGCUGAUCUUACUACCCACUUAUGAAACAUGAGGAUCACCCAUGU [JR_SSNG1_Sub016] (Eterna round: R96, puzzle: Same State NG 1)",20.6,17.4,25.8,–,–,–
"AUUUUUAAUGCAGGAUAUGAUUAACAUGAGGAUCACCCAUGUGGUGUUGUGAGUAAGGAGAGUGAUCAGAAGGGCAUUUUUGUU [JMF's solution 85] (Eterna round: R96, puzzle: Same State NG 2)",466,686,715,–,–,–
"CACAAUCUAUCUGAGGAUAUCAUGAAAAAAACAUGAGGAUCACCCAUGUGCAGGAAAACUGCAUAUGAGAAGGCAGAUAGAUUGU [salish99_SS2_r3_015] (Eterna round: R96, puzzle: Same State 2)",514,–,–,–,–,–
CACAAUCUAUCUGAGGAUAUCAUGAAAAAAACAUGAGGAUCACCCAUGUGCAGGAAAACUGCAUAUGAGAAGGCAGAUAGAUUGU [salish99_SS2_r3_015] (puzzle: Same State 2),–,–,–,28.3,720,913

Sequence,apparent KD of MS2 coat protein [1] [nM],apparent KD of MS2 coat protein (input ligand: FMN 200 uM) [nM],apparent KD of MS2 coat protein (input ligand: none) [nM],apparent KD of MS2 coat protein [2] [nM],apparent KD of MS2 coat protein [3] [nM],apparent KD of MS2 coat protein [4] [nM]
"CACAUGAGGAUCACCCAUGUGAGGCGGCAAUAAAACCGCGCACAGGAUAUAGCGCUAAGAAUGCGCUAGAAGGGUGAUUAGAAC [Esenla] (Eterna round: R96, puzzle: Same State NG 3)",10.4,746,39.2,–,–,–
CAGCGCUGUCGAGAGGAUAUGCGGUGAUGGACAUGAGGAUCACCCAUGUUAGCGACAGCAUCACGGCAGAAGGCUCUACCGCCUG [Soteed Omei mod 43] (puzzle: Same State 2),–,–,–,17.9,22.4,32.3
CAGUACUGUCGAGAGGAUAUGCGGUGAUGGACAUGAGGAUCACCCAUGUUAGCGACAGCAUCACGGCAGAAGGCUCUACUGCUGC [Soteed Omei mod 33] (puzzle: Same State 2),–,–,–,–,39.4,–
CAGUGCUGUCGAGAGGAUAUGCGGUGAUGGACAUGAGGAUCACCCAUGUUAGCGACAGCGUUACGGCAGAAGGCUCUACCCACUG [Soteed Omei mod 47] (puzzle: Same State 2),–,–,–,62.5,28.7,42.7
"CAUCCCUCCACAGGAUAUCGACCGAUAAAACGGCGAGAAGGGUGGCCACAUGAGGAUCACCCAUGUGGAAUUGGAUGAGCUACA [Enlaed] (Eterna round: R96, puzzle: Same State NG 1)",66.6,78.7,126,–,–,–
"CAUCUCCCUUUUACAUGAGGAUCACCCAUGUUUUCAUAUUGAGAGGAUAUCGUAUUUGGAAACAUCGAGAAGGCUCAUUUGUAU [JR_SSNG3_Sub073] (Eterna round: R96, puzzle: Same State NG 3)",345,–,–,–,–,–
"CCAUAACAGUGAGGAUAUUGUUGCGAUAAGUGACGAGAAGGCAUUCAUGUGAAAUAAACAUACAUGAGGAUCACCCAUGUUGUA [Omei SS(NG)1 Bv2] (Eterna round: R96, puzzle: Same State NG 1)",19.8,17.9,26.7,–,–,–
CCAUGGUAACAUGAGGAUCACCCAUGUACAAGCUUUUUGCUCGUUUUAUUUAUUAUUAUUAUUAUUAUUAUUAUUAA [Nishu_Seq1] (puzzle: Sensor for hsa-mir-208a version 2),–,–,–,33.5,105,86.6
"CCCUCAUGCAGGCUAACACGCUUGUUUUAACAUGAGGAUCACCCAUGUACGUCGCCGUUUCGUGCGGGACGCGCAGA [Anuscear] (Eterna round: R96, puzzle: Sensor for hsa-mir-208a)",229,363,169,–,–,–
"CCCUUCGGCACAUGAGGAUCACCCAUGUUUUAGUUGAAGAGGUAGGAUAUGGCUGGGAGCGGAAGCCAGAAGGACCAAGUGAGU [Lareonge] (Eterna round: R96, puzzle: Same State NG 3)",8.41,7.76,12.6,–,–,–
"CCGAAAUAUGGAGGAUAUGGAGCCUUAUUGGCUCCAGAAGGUCAAAACAUGAGGAUCACCCAUGUAUCGGCGGUCAAUAGACCG [Eli NG1ss - 73] (Eterna round: R96, puzzle: Same State NG 1)",81.7,123,171,–,–,–
"CCGAUAAAUGGAGGAUAUGGAGCCUUAUUGGCUCCAGAAGGCUAAUAACAUGAGGAUCACCCAUGUCGGCGGUCUAAUGACCGA [Eli NG1ss - 51] (Eterna round: R96, puzzle: Same State NG 1)",46.4,–,–,–,–,–
"CCGCUAAAUGGAGGAUAUGGAGCCUUAUUGGCUCCAGAAGGUCAAAACAUGAGGAUCACCCAUGUGCGGCGGUCUAAUGACCGA [Eli NG1ss - 48] (Eterna round: R96, puzzle: Same State NG 1)",122,–,–,–,–,–
"CCGGAUAAUGGAGGAUAUGGAGCCUUAUUGGCUCCAGAAGGCUAACAUGAGGAUCACCCAUGUAAUCCGGCGGUCAAUAGACCG [Eli NG1ss - 65] (Eterna round: R96, puzzle: Same State NG 1)",15,12,25.5,–,–,–
"CCGGUUUAUGGAGGAUAUGGAGCCUUAUUGGCUCCAGAAGGCUAAUACAUGAGGAUCACCCAUGUUCCGGCGGUCAAUAGACCG [Eli NG1ss - 58] (Eterna round: R96, puzzle: Same State NG 1)",77.8,23.9,126,–,–,–
"CCGUUCAAUAAACAUGAGGAUCACCCAUGUAAUAAUAAGGGUGAGGAUAUGCAUCUGAAACAGGUGCAGAAGGCAUAAGAGCGG [JL SSNG3 3.90] (Eterna round: R96, puzzle: Same State NG 3)",289,487,585,–,–,–

# Source: the supplement of paper PMC9170038
